Here are results for 4 molecules from patent US7662769B2, “Glycosyltransferase GnT-V having neovascularization action” (Suntory Holdings Limited, priority 2002, dated 2010).

*1 amine or outer side, *2 acyl side, *3 side chain or, on linkers, in order; H or OH if unused. Where a SMILES comes first, the peptide text is derived from it. [ ]: non-standard residue; d: D form. The star is where a group is joined. X1 = CC(N[*:1])C(=O)C(F)(F)C(=O)[*:2]; Boc = CC(C)(C)OC(=O)*

The subject of data set [1] is KB/GnT-V cell. Put plainly: GnT-V activity in culture solution (production of secretory type GnT-V), KB/GnT-V cell. It is filed as cell-based. As to conditions: 100 μM in DMSO, FIG. 10B.
Data set [2] relates to PaCa-2/GnT-V cell. Put plainly: GnT-V activity in culture solution (production of secretory type GnT-V), PaCa-2/GnT-V cell. It is filed as cell-based. As to conditions: 100 μM in DMSO, FIG. 10A.
Data set [3] deals with HSPG on HUVEC. The data set is described as follows: release of FGF-2 from HSPG on HUVEC (FGF-2 ELISA of supernatant). It is filed as cell-based, human. As to conditions: 4° C., 2 hours; FIG. 5. An excerpt:
A basic peptide (KRKRKK peptide) composed of Lys-Arg-Lys-Arg-Lys-Lys (SEQ ID NO: 11) which is an amino acid sequence of from 264 to 269 and a non-basic control peptide (FSGGPL peptide) composed of Phe-Ser-Gly-Gly-Pro-Leu (SEQ ID NO: 12) which is an amino acid sequence of from 291 to 296, of GnT-V, were synthesized, and an influence of these peptides on growth of HUVEC was examined. The peptide was synthesized by a peptide synthesizer A432 (manufactured by Applied Biosystems), and purified by reverse phase HPLC, then, its molecular weight and degree of purification were confirmed by MALDI TOF-MS (Voyager-DE (registered trademark) RP; manufactured by PerSeptive Biosystems). The concentration of FGF-2 was measured by a known method (Barillari, G., et al., American J. Patho. 152, 1161-1166 (1998)). […] After centrifugation at 4° C. and 3000 rpm for 5 minutes, the supernatant was collected, the concentration of FGF-2 in the supernatant was measured in an FGF-2 ELISA system (manufactured by R&D Systems) according to a manual of this system.
As described above, various deficient variants of GnT-V and synthetic peptides were added at 4° C. to culture solution of HUVEC, and the amount of FGF-2 released from HSPG on HUVEC was measured.
A general note: An ELISA detects its analyte on a solid surface through an enzyme-linked reagent.

Data set [4] deals with HUVEC. The data set is described as follows: HUVEC differentiation and growth, incorporation of [3H]-thymidine (DNA synthesis). Type of data set: cell-based, human. As to conditions: [3H]-thymidine incorporation; FIG. 2, 3B, 6. As to the method: For in vitro evaluation of induction of neovascularization by a GnT-V transformant, the amount of synthesis of DNA of human umbilical vein […] cells (HUVEC) after stimulation with culture solution of a GnT-V transformant was measured by a method of Soker et al.(Soker, S., et al., J. Biol. Chem. 272, 31582-31588 (1997)). HUVEC was inoculated on a 96-well plate coated with type I collagen at a rate of 2×10^3 cells per well, and 24 hours later, the medium was substituted with an MCDB131 medium (not containing FBS and FGF-2) containing 0.1% […] and a starved condition was maintained for 24 hours. The medium was substituted with culture solution of the WiDr cell transformed with the glycosyltransferase gene described in Example 1, and HUVEC was stimulated for 24 hours. HUVEC was maintained for 8 hours with [^3H]-thymidine (1 μCi/ml), and incorporation of [^3H]-thymidine into HUVEC was analyzed by MicroBeta-Counter (manufactured by Wallac) to measure the amount of synthesis of DNA. The result was shown as the mean value of assay results of 6 wells, and the standard deviation was measured. All experiments were repeated at least three times, and the same results were obtained. As apparent from FIG. 1, DNA synthesis of HUVEC stimulated with the culture solution of WiDr cells transformed with a GnT-V gene increased, however, the same effect was not observed in culture solution of WiDr cells transformed with other glycosyltransferase genes.
Purification of a neovascularization factor present in culture solution of WiDr cells transformed with a GnT-V gene was conducted using various column chromatographies. The neovascularization activity of each fraction was evaluated by differentiation and growth of HUVEC described in Example 3. In heparin affinity chromatography, a fraction of high growth activity of HUVEC was eluted with 0.3 M NaCl. Since known growth factors such as FGF-1, FGF-2, VEGF, placenta-induced growth factor (PIGF) and hepatocyte growth factor (HGF) and the like are eluted with 0.8 to 1.5 M NaCl (Hauser, S. & Weich H. A., Growth Factor 9, 259-268 (1993). Gohda, E., et al., J. Clin. Invest. 81, 414-419 (1998). Marez, A., et al., Biochimie 69, 125-129 (1987). Risau, W., et al., The EMBO J. 7, 959-962 (1988). Rothenthal, R. A., et al., Growth Factor 4, 53-59 (1990)), the above-mentioned nature is utterly different from the natures of these known growth factors. […] A fraction eluted with 0.3 M NaCl in heparin affinity chromatography was subjected to Western blot analysis using an anti-GnT-V antibody to find that the reaction of the anti-GnT-V antibody and the differentiation and growth activity of HUVEC are consistent each other, and the main protein having a differentiation and growth activity of HUVEC present in the fraction is GnT-V itself.
For orientation: Uptake of a labelled nucleoside into DNA is a usual measure of proliferation.

Data set [5] in a line: glycosyltransferase activity of GnT-V deficient variants. It is filed as biochemical. As to conditions: recombinant variants from Sf21 cells. From the text:
For clarifying which domain of GnT-V is involved in HUVEC growth accelerating activity, a GnT-V lacking variant shown in FIG. 3A was produced. The method of production of a GnT-VΔ188 plasmid is disclosed in a literature of Sasai et al (Sasai, K., et al., Glycobiology (in press)). A transfer plasmid having a GnT-VΔ233 gene was produced by binding a DNA fragment of 1521 base pairs encoding polyhistidine tag at the C-terminal and an amino acid sequence of from Glu234 to Leu741 of human GnT-V, obtained by cutting a GnT-VΔ188 plasmid with EcoRI and EagI, to an EcoRI-EagI site of a transfer vector pAcGP67-A (manufactured by PharMingen). A transfer plasmid having a GnT-VΔ436 gene was produced by binding a DNA fragment of 912 base pairs encoding polyhistidine tag at the C terminal and an amino acid sequence of from Ile437 to Leu741, of human GnT-V, obtained by cutting a GnT-VΔ188 plasmid with EcoRV and EagI, to an EcoRV-EagI site of a transfer vector pAcGP67-A. For production of a recombinant Baculovirus, an insect cell Sf21 was transformed with the transfer plasmid obtained above according to a method known in a literature (Ikeda, Y., et al., J. Biochem. 128, 609-619 (2000)). The recombinant glycosyltransferase derived from the transformed Sf21 cell was purified by Ni^2+-chelating affinity chromatography according to a method disclosed in a literature of Sasaki et al (Sasai, K., et al., Glycobiology (in press)).

In data set [6] the test system is HUVEC. The data set is described as follows: capillary-like tube formation assay using HUVEC. It is filed as cell-based, human. An excerpt: (§1) Induction of neovascularization by GnT-V was confirmed also by other in vitro neovascularization assays such as a capillary-like tube formation assay (Ashoton, A. W., et al., J. Biol. Chem. 274, 35562-35570 (1999)) and a migration assay (Zeng, H., et al., J. Biol. Chem. 276, 3271-3279 (2001)) using HUVEC.

Data set [7] has as its system HUVEC. Put plainly: migration assay using HUVEC. Type of data set: cell-based, human.
Description: as §1

For data set [8], the system named is chicken microvessels. The data set is described as follows: CAM (chorioallantoic membrane) assay of neovascularization. Type of data set: in vivo. As to conditions: ex-vivo, chicken embryo CAM. On the procedure: Acceleration of neovascularization by a GnT-V transformant was confirmed by a CAM (chorioallantoic membrane) assay using an embryo of a chicken fertilized egg. The CAM assay was conducted by a method of Yen et al. (Yen, L., et al., Oncogene 19, 3460-3469 (2000)) and a method of Bernardini (Bernardini, G., et al., Blood 96, 4039-4045 (2000)), both being slightly modified. CAM 8 days after fertilization of white Leghorn was used, and 1×10^5 cells thereof were inoculated on a collagen sponge and maintained for 4 hours. A 5 mm silicon ring was placed on CAM on the collagen sponge and maintained for 48 hours.
as §1

As for `CCC(C)C(NC(=O)C(NC(=O)OC(C)(C)C)C(C)C)C(=O)NC(C)C(=O)C(F)(F)C(=O)NC(C(=O)NC(C(=O)OC)C(C)CC)C(C)C` (centres unmarked) [DFK167] (Boc-VI[X1]VI-OMe; configuration not given here), the “GnT-V activity in culture solution” value in data set [1] and in data set [2] was “could not be detected” in each case.

B1: GnT-VΔ233: GnT-V lacking variant, amino acid sequence from Glu234 to Leu741 of human GnT-V with C-terminal polyhistidine tag (protein, UniProt Q09328 234-741, looked up, fragment)
chain: EFRWMRLRIRRMADAWIQAIKSLAEKQNLEKRKRKKVLVHLGLLTKESGFKIAETAFSGGPLGELVQWSDLITSLYLLGHDIRISASLAELKEIMKKVVGNRSGCPTVGDRIVELIYIDIVGLAQFKKTLGPSWVHYQCMLRVLDSFGTEPEFNHANYAQSKGHKTPWGKWNLNPQQFYTMFPHTPDNSFLGFVVEQHLNSSDIHHINEIKRQNQSLVYGKVDSFWKNKKIYLDIIHTYMEVHATVYGSSTKNIPSYVKNHGILSGRDLQFLLRETKLFVGLGFPYEGPAPLEAIANGCAFLNPKFNPPKSSKNTDFFIGKPTLRELTSQHPYAEVFIGRPHVWTVDLNNQEEVEDAVKAILNQKIEPYMPYEFTCEGMLQRINAFIEKQDFCHGQVMWPPLSALQVKLAEPGQSCKQVCQESQLICEPSFFQHLNKDKDMLKYKVTCQSSELAKDILVPSFDPKNKHCVFQGDLLLFSCAGAHPRHQRVCPCRDFIKGQVALCKDCL
modifications: C-terminal His tag
In the case of B1, the “release of FGF-2 from HSPG on HUVEC” value in data set [3] was “released FGF-2”. In data set [4], the “differentiation and growth of HUVEC (HUVEC growth accelerating activity)” value is “had an HUVEC growth and differentiation accentuation action”. Besides, the glycosyltransferase activity entry in data set [5] is on record as “had no glycosyltransferase activity”.

B2: GnT-V: secretory type glycosyltransferase N-acetylglucosaminyltransferase V (protein, UniProt Q09328 1-741, looked up)
Alpha-1,6-mannosylglycoprotein …: MALFTPWKLSSQKLGFFLVTFGFIWGMMLLHFTIQQRTQPESSSMLREQILDLSKRYIKALAEENRNVVDGPYAGVMTAYDLKKTLAVLLDNILQRIGKLESKVDNLVVNGTGTNSTNSTTAVPSLVALEKINVADIINGAQEKCVLPPMDGYPHCEGKIKWMKDMWRSDPCYADYGVDGSTCSFFIYLSEVENWCPHLPWRAKNPYEEADHNSLAEIRTDFNILYSMMKKHEEFRWMRLRIRRMADAWIQAIKSLAEKQNLEKRKRKKVLVHLGLLTKESGFKIAETAFSGGPLGELVQWSDLITSLYLLGHDIRISASLAELKEIMKKVVGNRSGCPTVGDRIVELIYIDIVGLAQFKKTLGPSWVHYQCMLRVLDSFGTEPEFNHANYAQSKGHKTPWGKWNLNPQQFYTMFPHTPDNSFLGFVVEQHLNSSDIHHINEIKRQNQSLVYGKVDSFWKNKKIYLDIIHTYMEVHATVYGSSTKNIPSYVKNHGILSGRDLQFLLRETKLFVGLGFPYEGPAPLEAIANGCAFLNPKFNPPKSSKNTDFFIGKPTLRELTSQHPYAEVFIGRPHVWTVDLNNQEEVEDAVKAILNQKIEPYMPYEFTCEGMLQRINAFIEKQDFCHGQVMWPPLSALQVKLAEPGQSCKQVCQESQLICEPSFFQHLNKDKDMLKYKVTCQSSELAKDILVPSFDPKNKHCVFQGDLLLFSCAGAHPRHQRVCPCRDFIKGQVALCKDCL
Consider B2, for which, in data set [6], the “induction of neovascularization, capillary-like tube formation” value was “confirmed”. Also, the “induction of neovascularization, migration” value in data set [7] is “confirmed”.

B3: GnT-VΔ436: GnT-V lacking variant, amino acid sequence from Ile437 to Leu741 of human GnT-V with C-terminal polyhistidine tag (protein, UniProt Q09328 437-741, looked up, fragment)
chain: IHHINEIKRQNQSLVYGKVDSFWKNKKIYLDIIHTYMEVHATVYGSSTKNIPSYVKNHGILSGRDLQFLLRETKLFVGLGFPYEGPAPLEAIANGCAFLNPKFNPPKSSKNTDFFIGKPTLRELTSQHPYAEVFIGRPHVWTVDLNNQEEVEDAVKAILNQKIEPYMPYEFTCEGMLQRINAFIEKQDFCHGQVMWPPLSALQVKLAEPGQSCKQVCQESQLICEPSFFQHLNKDKDMLKYKVTCQSSELAKDILVPSFDPKNKHCVFQGDLLLFSCAGAHPRHQRVCPCRDFIKGQVALCKDCL
modifications: C-terminal His tag
With B3, the “induction of neovascularization in CAM assay” value in data set [8] is listed as “did not have a neovascularization activity”. Also, in data set [3], the “release of FGF-2 from HSPG on HUVEC” value is given as “did not affect release of FGF-2”. Further, the “differentiation and growth of HUVEC (HUVEC growth accelerating activity)” value in data set [4] is “did not have an HUVEC growth and differentiation accentuation action”. The glycosyltransferase activity entry in data set [5] was “had no glycosyltransferase activity”.
